{"source": "paper PMC2780292", "about": "“Structural Requirements for PACSIN/Syndapin Operation during Zebrafish Embryonic Notochord Development” (PLoS ONE, 2009)", "proteins": {"B1": {"name": "Drosophila Syndapin N-terminal EFC domain (domain or fragment, Drosophila melanogaster)", "chain": "SDSFWEPGNYKRTTKRIEDGYKLCNDLQQLIQERADIEKGYAKSLRTWSKKWGELIEKGPEYGTTEAAWKGVLTESERISDVHMKIKDNLCNDVNSQIKTWQKENYHHTLMQIKERKDLEDLFKKAQKPWAKLLAKVEKAKADYHSACKTERSATNQERNANADSSLSPDQVKKMHDRVQKTKDQVQKCREKYEQAIAEITKYNSVYIEDMTSVFEKCQTFEKTRLQFFKEILFNVHSCLDLTKVQSLPQIYEEFSHTINNADQQKDLKWWSNNHGINMAMNWPSFVEYT", "modifications": "selenomethionine-substituted", "notes": "the model holds residues 14-303 (chain A, 169-188 missing) and 14-298 (chain B); The fragment arose from full-length Syndapin during crystallization; Antiparallel homodimer; also called Syndapin EFC domain; Syndapin EFC dimer; source: crystals contained only the EFC domain"}}, "biological_target": "the molecule itself", "test": "crystal structure; selenomethionine SAD, 2.7 Å; crystals from 17% PEG 3350, 0.1 M disodium phosphate, hanging drop; two molecules in the asymmetric unit", "data": [{"protein": "B1", "values": [{"measurement": "stoichiometry N", "result": 2}]}]}
